# Source: US9657104B2, “Anti-c-Met/anti-EGFR bispecific antibodies” (Samsung Electronics Co., Ltd., priority 2013, dated 2017)
# B1: anti-EGFR scFv: scFv with heavy chain variable region SEQ ID NO: 109, (GGGGS)3 linker, light chain variable region SEQ ID NO: 111 (antibody, V domains shown)
# VH: QVQLVQSGAEVKKPGSSVKVSCKASGFTFTDYKIHWVRQAPGQGLEWMGYFNPNSGYSTYAQKFQGRVTITADKSTSTAYMELSSLRSEDTAVYYCARLSPGGYYVMDAWGQGTTVTVSS
# VL: DIQMTQSPSSLSASVGDRVTITCRASQGINNYLNWYQQKPGKAPKRLIYNTNNLQTGVPSRFSGSGSGTEFTLTISSLQPEDFATYYCLQHNSFPTFGQGTKLEIKRT
# modifications: (GGGGS)3 linker; Synthetic (heavy-chain variable region of anti-EGFR antibody); Synthetic (light-chain variable region of anti-EGFR antibody)
# Test system: c-Met and EGFR
# Test: Co-localization of c-Met and EGFR by confocal microscopy
# Type: cell-based
# Conditions: 1 μg/mL, 37° C., 4 hours; MKN45 and EBC1 cell lines; FIGS. 7 and 8
# Protocol: The MKN45 cell line and the EBC1 cell line were prepared in amounts of 4×10^4 cell/well, respectively, to which L3-1Y-IgG2 prepared in Reference Example 1, anti-EGFR scFv prepared in Reference Example 2, and the anti-c-Met/anti-EGFR bispecific antibody ME03S prepared in Example 1 were each added individually or in combination to result in the concentration of 1 μg/mL per well (in case of the combination treatment, to result in 1 μg/mL each) and treated at 37° C. for 4 hours. The cells were treated with 4% (v/v) formaldehyde for 15 min to immobilize them on a plate, and washed three times with PBS. Thereafter, the cells were treated with a blocking buffer (0.5% triton x-100 and 5% donkey serum) at a room temperature for one hour and then treated with a 1:100 dilution of the first antibodies (c-Met primary antibody; #FAB3582A, R&D systems, EGFR primary antibody; #5616, Cell signaling) against c-Met and EGFR, respectively in amounts of 100 μA at 4° C. for 15 hours. After the cells were washed three time with PBS, they were treated with a 1:2000 dilution of the secondary antibody (#A21433, Invitrogen) in an amount of 100 μA at a room temperature for 1 hour and washed three times with PBS to prepare a plate with a mounting medium (#H-1200, Vector).
molecule,measurement,value
B1,location of c-Met and EGFR in the cells,EGFR still locates on cell membranes
